The record followed here is patent publication US20110130449A1 (ISIS INNOVATION, published 2011).

For test [1], the target named is Jmjd6 active site mutant ASM1 (GFP fusion) (human, UniProt Q5R6G2 1-403). Nature of the test: GFP nanotrap pulldown, Western blot.
For test [2], the target named is Jmjd6 with an N-terminal deletion of seven amino acids (GFP fusion) (human, UniProt Q5R6G2 8-403). As to the kind of experiment: GFP nanotrap pulldown, Western blot. Background: In western blotting, separated proteins are transferred to a membrane and probed.
Test [3] addresses TAP-tagged Jmjd6 fusion protein (human). Nature of the test: tandem affinity purification of TAP-tagged Jmjd6 from HEK293T cells, MS identification.

B1: Splicing factor U2AF 65 kD subunit (other)
chain: SDFDEFERQLNENKQERDKENRHRKRSHSRSRSRDRKRRSRSRDRRNRDQRSASRDRRRRSKPLTRGAKEEHGGLIRSPRHEKKKKVRKYWDVPPPGFEHITPMQYKAMQAAGQIPATALLPTMTPDGLAVTPTPVPVVGSQMTRQARRLYVGNIPFGITEEAMMDFFNAQMRLGGLTQAPGNPVLAVQINQDKNFAFLEFRSVDETTQAMAFDGIIFQGQSLKIRRPHDYQPLPGMSENPSVYVPGVVSTVVPDSAHKLFIGGLPNYLNDDQVKELLTSFGPLKAFNLVKDSATGLSKGYAFCEYVDINVTDQAIAGLNGMQLGDKKLLVQRASVGAKNATLVSPPSTINQTPVTLQVPGLMSSQVQMGGHPTEVLCLMNMVLPEELLDDEEYEEIVEDVRDECSKYGLVKSIEIPRPVDGVEVPGCGKIFVEFTSVFDCQKAMQGLTGRKFANRVVVTKYCDPDSYHRRDFW
notes: also called U2 snRNP auxiliary factor 65 KDa subunit
Turning to B1, the binding result in test [1] is on record as “no binding”; in test [2], “no binding”; in test [3], “binds”.

B2: cisplatin resistance-associated overexpressed protein (CROP) (other)
chain: MISAAQLLDELMGRDRNLAPDEKRSNVRWDHESVCKYYLCGFCPAELFTNTRSDLGPCEKIHDENLRKQYEKSSRFMKVGYERDFLRYLQSLLAEVERRIRRGHARLALSQNQQSSGAAGPTGKNEEKIQVLTDKIDVLLQQIEELGSEGKVEEAQGMMKLVEQLKEERELLRSTTSTIESFAAQEKQMEVCEVCGAFLIVGDAQSRVDDHLMGKQHMGYAKIKATVEELKEKLRKRTEEPDRDERLKKEKQEREEREKEREREREERERKRRREEEEREKERARDRERRKRSRSRSRHSSRTSDRRCSRSRDHKRSRSRERRRSRSRDRRRSRSHDRSERKHRSRSRDRRRSKSRDRKSYKHRSKSRDREQDRKSKEKEKRGSDDKKSSVKSGSREKQSEDTNTESKESDTKNEVNGTSEDIKSEGDTQSN
notes: also called CROP protein
Regarding B2, the binding result in test [3] is listed as “binds”.
